The results in this text go back to patent US20260217833A1 (APTEVO RESEARCH AND DEVELOPMENT, published 2026).

Changes are numbered by the printed parent chain. Like-named read-outs stand apart in the source and are kept apart here.

For experiment [1], the target named is T1, human CD40 full-length (human, UniProt P25942 21-277).
T1 construct: Also used for CD40 of Daudi cells, of CD40-expressing HEK293 cells and of the BPS CD40/NFkB HEK293 reporter cells where the row says so; also called CD4001012; CHOK1SV/CD40
Briefly: flow cytometry, CHOK1SV/human CD40 cells.

In experiment [2] the target is T2, Human PD-L1 full-length (human, UniProt Q9NZQ7 19-290).
T2 construct: also called PDL01021; CHOK1SV/huPDL1
T2 sequence (Q9NZQ7 19-290): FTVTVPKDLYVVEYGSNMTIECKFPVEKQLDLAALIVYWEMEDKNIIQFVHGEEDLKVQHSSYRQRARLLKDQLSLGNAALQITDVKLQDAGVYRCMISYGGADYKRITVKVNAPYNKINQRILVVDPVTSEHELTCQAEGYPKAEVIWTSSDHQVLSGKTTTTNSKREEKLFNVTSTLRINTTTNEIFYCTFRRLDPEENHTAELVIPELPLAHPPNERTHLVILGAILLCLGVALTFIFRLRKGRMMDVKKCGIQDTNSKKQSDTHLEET
Description: flow cytometry, CHOK1SV/human PD-L1 cells. (In flow cytometry, cells or beads pass a laser one at a time.)

The next experiment deals with T3, huPD-L1 ECD AFH (human).
T3 construct: also called PDL01001; recombinant human PD-L1 ectodomain (ECD)
T3 sequence (chain, as listed by the source limits assumed): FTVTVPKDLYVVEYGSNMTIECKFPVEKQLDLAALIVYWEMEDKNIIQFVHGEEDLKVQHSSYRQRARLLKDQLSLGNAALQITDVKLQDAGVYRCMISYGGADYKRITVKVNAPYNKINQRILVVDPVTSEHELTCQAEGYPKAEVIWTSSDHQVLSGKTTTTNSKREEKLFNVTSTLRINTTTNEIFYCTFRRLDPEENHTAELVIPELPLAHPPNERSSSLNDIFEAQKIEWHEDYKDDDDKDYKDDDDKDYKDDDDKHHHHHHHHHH
Briefly: SPR, binder captured on anti-human IgG, PD-L1 ECD injected, 1:1 fit.

Experiment [3] has as its target T2, Human PD-L1 full-length. Briefly: MSD cell binding, CHOK1SV/human PD-L1 cells; x axis without printed unit.
The target of the next experiment is T4, Cyno PD-L1 full-length (cynomolgus, UniProt Q9NZQ7 19-290 (human entry)).
T4 construct: also called PDL01022; CHOK1SV/cynoPDL1
T4 sequence (Q9NZQ7 other isoform, or with tags, fused parts or gaps): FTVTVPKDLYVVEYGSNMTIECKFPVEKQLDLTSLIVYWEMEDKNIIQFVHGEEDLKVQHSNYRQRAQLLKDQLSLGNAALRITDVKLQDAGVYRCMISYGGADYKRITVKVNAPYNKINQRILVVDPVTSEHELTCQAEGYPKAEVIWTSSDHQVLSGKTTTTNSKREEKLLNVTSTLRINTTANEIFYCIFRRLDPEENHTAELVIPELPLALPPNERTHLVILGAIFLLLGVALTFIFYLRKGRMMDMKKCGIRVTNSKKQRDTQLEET
Briefly: MSD cell binding, CHOK1SV/cynomolgus PD-L1 cells; x axis without printed unit.

Experiment [4] deals with T1, human CD40 full-length. Briefly: flow cytometry, CHOK1SV/human CD40 cells. This is another data set of the same source.
The target in experiment [5] is T2, Human PD-L1 full-length. Description: flow cytometry, CHOK1SV/human PD-L1 cells. The source holds these as a separate data set.
The target of another experiment is T5, Cynomolgus CHOK1SV/CD40.
T5 construct: also called Cyno CD40 full-length; CD4001013
T5 receptor chain: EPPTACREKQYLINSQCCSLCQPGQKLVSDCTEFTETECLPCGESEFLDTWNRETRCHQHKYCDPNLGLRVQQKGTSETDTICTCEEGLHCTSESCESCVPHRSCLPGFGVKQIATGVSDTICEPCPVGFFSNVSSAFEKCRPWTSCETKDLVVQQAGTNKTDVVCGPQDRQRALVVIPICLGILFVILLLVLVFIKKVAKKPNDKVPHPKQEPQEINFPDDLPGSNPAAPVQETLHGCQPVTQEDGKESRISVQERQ
Description: flow cytometry, CHOK1SV/cynomolgus CD40 cells.

Experiment [6] deals with T6, human neonatal Fc receptor (FcRn, complexed with beta-2-macroglobulin) (human, UniProt P55899 24-297; P61769 21-119).
T6 construct: also called Human FcRn/b2m
T6 sequence (P55899 24-297 limits assumed, chain 1 of 2): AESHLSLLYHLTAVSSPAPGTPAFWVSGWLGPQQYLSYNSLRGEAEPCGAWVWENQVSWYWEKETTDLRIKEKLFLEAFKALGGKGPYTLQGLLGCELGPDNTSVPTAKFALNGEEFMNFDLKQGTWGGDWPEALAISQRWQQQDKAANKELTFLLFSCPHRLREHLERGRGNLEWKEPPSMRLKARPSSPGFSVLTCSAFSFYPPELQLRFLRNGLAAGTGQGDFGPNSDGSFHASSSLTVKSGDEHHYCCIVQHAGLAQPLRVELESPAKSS
T6 sequence (P61769 21-119 limits assumed, chain 2 of 2): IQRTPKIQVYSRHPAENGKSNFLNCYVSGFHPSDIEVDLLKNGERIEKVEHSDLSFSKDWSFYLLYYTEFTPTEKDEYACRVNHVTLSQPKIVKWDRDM
Description: SPR, FcRn/b2m immobilized, bispecific injected, pH 6.0, two-state reaction fit. A general note: SPR reads the build-up and loss of mass on a sensor chip optically.

The target of a further experiment is T7, human CD40 ECD- HAC tag (human).
T7 construct: also called CD4001006; recombinant monomeric human CD40 ectodomain (ECD)
Description: SPR (Biacore T200), bispecific captured on the chip, monovalent CD40 ECD injected.

Experiment [7] concerns the target T2, Human PD-L1 full-length. Briefly: flow cytometry, CHOK1SV/human PD-L1 cells. This is another data set of the same source.

B1: CD4001077 (bispecific antibody)
PDL_5F9 x Fc-Knob: EVQLVESGGGLVKPGGSLRLSCAASGFTFSDYGMAWVRQAPGKGLEWVAFITSLAYIIYYADSVKGRFTISRDNAKNSLYLQMNSLRAEDTAVYYCARNYGSSPYYFDYWGQGTLVTVSSGGGGSGGGGSGGGGSGGGGSDIQMTQSPSSLSASVGDRVTITCRASQDINKFLSWYQQKPGKAPKLLIHYTSSLQPGVPSRFSGSGSGTDFTLTISSLQPEDFATYYCLQYDNLYTFGQGTKLEIKEPKSSDKTHTCPPCPAPPAAAPSVFLFPPKPKDTLMISRTPEVTCVVVDVSHEDPEVKFNWYVDGVEVHNAKTKPREEQYNSTYRVVSVLTVLHQDWLNGKEYKCAVSNKALPAPIEKTISKAKGQPREPQVYTLPPSRDELTKNQVSLWCLVKGFYPSDIAVEWESNGQPENNYKTTPPVLDSDGSFFLYSKLTVDKSRWQQGNVFSCSVMHEALHNHYTQKSLSLSPG
PDL_5F9 x Fc-Hole x CD40_5B9: EVQLVESGGGLVKPGGSLRLSCAASGFTFSDYGMAWVRQAPGKGLEWVAFITSLAYIIYYADSVKGRFTISRDNAKNSLYLQMNSLRAEDTAVYYCARNYGSSPYYFDYWGQGTLVTVSSGGGGSGGGGSGGGGSGGGGSDIQMTQSPSSLSASVGDRVTITCRASQDINKFLSWYQQKPGKAPKLLIHYTSSLQPGVPSRFSGSGSGTDFTLTISSLQPEDFATYYCLQYDNLYTFGQGTKLEIKEPKSSDKTHTCPPCPAPPAAAPSVFLFPPKPKDTLMISRTPEVTCVVVDVSHEDPEVKFNWYVDGVEVHNAKTKPREEQYNSTYRVVSVLTVLHQDWLNGKEYKCAVSNKALPAPIEKTISKAKGQPREPQVYTLPPSRDELTKNQVSLSCAVKGFYPSDIAVEWESNGQPENNYKTTPPVLDSDGSFFLVSKLTVDKSRWQQGNVFSCSVMHEALHNRFTQKSLSLSPGGGGSPSDVVMTQTPLSLPVSLGDQASISCRSSQSLVHYNGYTYLHWYLQKPGQSPKLLIYKVSNRFSGVPDRFSGSGSGTDFTLKISRVEAEDLGVYFCSQTTHVPLTFGAGTKLELRGGGGSGGGGSGGGGSGGGGSEVMLVESGGGLVKPGGSLKLSCAASGFTFSSYAMSWVRQTPERRLEWVASISSAGTYIYYPDSVKGRFTISRDNAKNILYLQMNSLRSEDTAMYYCARHGNGYDPLWYFDVWGAGTTVTVSS
Take B1: the binding result with human CD40 full-length [1] and with Human PD-L1 full-length [2] was “binds” in each case.

B2: CD4001080 (bispecific antibody)
Fc-knob x CD40_5B9: EPKSSDKTHTCPPCPAPPAAAPSVFLFPPKPKDTLMISRTPEVTCVVVDVSHEDPEVKFNWYVDGVEVHNAKTKPREEQYNSTYRVVSVLTVLHQDWLNGKEYKCAVSNKALPAPIEKTISKAKGQPREPQVYTLPPSRDELTKNQVSLWCLVKGFYPSDIAVEWESNGQPENNYKTTPPVLDSDGSFFLYSKLTVDKSRWQQGNVFSCSVMHEALHNHYTQKSLSLSPGGGGSPSDVVMTQTPLSLPVSLGDQASISCRSSQSLVHYNGYTYLHWYLQKPGQSPKLLIYKVSNRFSGVPDRFSGSGSGTDFTLKISRVEAEDLGVYFCSQTTHVPLTFGAGTKLELRGGGGSGGGGSGGGGSGGGGSEVMLVESGGGLVKPGGSLKLSCAASGFTFSSYAMSWVRQTPERRLEWVASISSAGTYIYYPDSVKGRFTISRDNAKNILYLQMNSLRSEDTAMYYCARHGNGYDPLWYFDVWGAGTTVTVSS
PDL_5F9 x Fc-Hole x CD40_5B9: B1 PDL_5F9 x Fc-Hole x CD40_5B9
For the molecule B2, the binding result with human CD40 full-length [1] and with Human PD-L1 full-length [2] was “binds” in each case.

B3: PDL01034 (5F9HL x human IgG1 WT Fc) (Fc fusion)
chain: EVKLVESGGGLVQPGGSRKLSCAASGFTFSDYGMAWVRQAPGKGPEWVAFITSLAYIIFYSDTVTGRFTISRENAKNTLYLEMSSLRSEDTAVYYCARNYGSSPYYFDYWGQGTTLTVSSGGGGSGGGGSGGGGSGGGGSDIQMTQSPSSLSTSLGGKVTITCKASQDINKFISWYQHKPGKGPRLLIHYTSSLQPGIPSRFSGSGSGRDYSFSISNLEPEDIATYYCLQYDNLYTFGGGTKLEIK
notes: Murine anti-PD-L1 scFv (VH-VL) on human IgG1 wild-type Fc; also called PDL01034 (Parent); 5F9 clone PDL01034; not shown: human IgG1 WT Fc
The Kd is the constant that tells how readily two partners part at equilibrium. A higher Kd goes with weaker binding. A word on the koff: it is the first-order rate constant of dissociation. As usually defined, the kon is the rate constant with which the complex forms. Higher therefore signals faster complex formation. For B3, in the experiment with huPD-L1 ECD AFH, the affinity, expressed as Kd, was 0.2 nM; the koff came to 0.00024 s⁻¹; the on-rate constant (kon) was determined as 1.4e+06 M⁻¹ s⁻¹. Further, the binding result with Human PD-L1 full-length [3] is “binds”. The binding result with Cyno PD-L1 full-length was “binds”.

B4: PDL01152 (Fc fusion)
chain: DIQMTQSPSSLSASVGDRVTITCRASQDINKFLSWYQQKPGKAPKLLIHYTSSLQSGVPSRFSGSGSGTDFTLTISSLQPEDFATYYCLQYDNLYTFGQGTKLEIKGGGGSGGGGSGGGGSGGGGSEVQLVESGGGLVQPGGSLRLSCAASGFTFSDYGMAWVRQAPGKGLEWVSFITSLAYIIYYADSVKGRFTISRDNAKNSLYLQMNSLRAEDTAVYYCARNYGSSPYYFDYWGQGTLVTVSS
notes: scFv (VL-VH); also called Humanized 5F9 anti-PD-L1 scFv; not shown: wildtype IgG1 Fc region
With B4, in the experiment with huPD-L1 ECD AFH, the Kd was 1.1 nM, the koff was found to be 0.0012 s⁻¹ and the kon was 1.1e+06 M⁻¹ s⁻¹.

B5: PC401119 (bispecific antibody)
chain: DIQMTQSPSSLSASVGDRVTITCRASQDINKFLSWYQQKPGKAPKLLIHYTSSLQSGVPSRFSGSGSGTDFTLTISSLQPEDFATYYCLQYDNLYTFGQGTKLEIKGGGGSGGGGSGGGGSGGGGSEVQLVESGGGLVQPGGSLRLSCAASGFTFSDYGMAWVRQAPGKGLEWVSFITSLAYIIYYADSVKGRFTISRDNAKNSLYLQMNSLRAEDTAVYYCARNYGSSPYYFDYWGQGTLVTVSSEPKSSDKTHTCPPCPAPPAAAPSVFLFPPKPKDTLMISRTPEVTCVVVDVSHEDPEVKFNWYVDGVEVHNAKTKPREEQYNSTYRVVSVLTVLHQDWLNGKEYKCAVSNKALPAPIEKTISKAKGQPREPQVYTLPPSRDELTKNQVSLTCLVKGFYPSDIAVEWESNGQPENNYKTTPPVLDSDGSFFLYSKLTVDKSRWQQGNVFSCSVMHEALHNHYTQKSLSLSPGGGGSPSDIQMTQSPSSVSASVGDRVTITCRASQSLLFSVNQKNYLAWYQQKPGKAPKLLIYWASSLQSGVPSRFSGSGSGTDFTLTISSLQPEDFATYYCQHYYSYPWTFGQGTKVEIKGGGGSGGGGSGGGGSGGGGSQVQLVQSGAEVKKPGSSVKVSCKASGYTFSTSWIEWIRQAPGQGLEWMGSILPGSGSTNYNQKFQGRVTITADTSTSTAYMELSSLRSEDTAVYYCARGDDGSYVRWYFDHWGQGTLVTVSS
notes: also called H-Ala60Asn
In general, EC50 (read off the curve) refers to the concentration needed to bring the measured effect to its halfway point. On to B5, for which the binding result with human CD40 full-length [4] is on record as “binds”. The “EC50 (read off the curve)” value in the experiment with Human PD-L1 full-length [5] is roughly 5 nM. For the same molecule, the binding result in the experiment with Cynomolgus CHOK1SV/CD40 is on record as “binds”. The Kd in [6] stood at 122 nM. In the experiment with human CD40 ECD- HAC tag, this molecule yielded a Kd of 57 nM, an off-rate (koff) of 0.0004 s⁻¹ and a kon of 7000 M⁻¹ s⁻¹.

B6: PC401128 (bispecific antibody)
scFv-Fc-scFv chain: B5 chain with L512T, N676A
notes: also called L-Leu30Thr
On to B6, for which the binding result with human CD40 full-length [4], in the experiment with Human PD-L1 full-length [7] and in the experiment with Cynomolgus CHOK1SV/CD40 was “binds” in each case.

B7: PC401120 (bispecific antibody)
chain: B5 chain with Q588C, G659C, N676A
notes: also called L-Gln100Cys + H-Gly44Cys
Regarding B7, the binding result with human CD40 full-length [4] and in the experiment with Cynomolgus CHOK1SV/CD40 was “binds” each time. In addition, the “EC50 (read off the curve)” value in the experiment with Human PD-L1 full-length [5] was roughly 3 nM. Besides, the Kd was 146 nM in experiment [6] and 74 nM in the experiment with human CD40 ECD- HAC tag. Besides, in the experiment with human CD40 ECD- HAC tag, the koff is 0.00054 s⁻¹. This molecule also showed a kon in the experiment with human CD40 ECD- HAC tag of 7200 M⁻¹ s⁻¹.

B8: PC401122 (bispecific antibody)
chain: B5 chain with N676A, V720N
notes: also called H-Val100aAsn
For B8, the binding result with human CD40 full-length [4] and with Cynomolgus CHOK1SV/CD40 was “binds” in each case. Besides, the “EC50 (read off the curve)” value with Human PD-L1 full-length [5] was roughly 3 nM. The Kd was found to be 134 nM in experiment [6] and 69 nM in the experiment with human CD40 ECD- HAC tag. In the experiment with human CD40 ECD- HAC tag, this molecule had a koff of 0.0006 s⁻¹. Further, the on-rate (kon) with human CD40 ECD- HAC tag turned out to be 8700 M⁻¹ s⁻¹.

B9: PC401124 (bispecific antibody)
chain: B5 chain with V720N
notes: also called H-Ala60Asn + H-Val100aAsn
On to B9, for which the binding result with human CD40 full-length [4], with Human PD-L1 full-length [7] and in the experiment with Cynomolgus CHOK1SV/CD40 was “binds” in each case. Further, in experiment [6], the Kd was 144 nM.
